We go through five molecules from patent publication US20090325290A1 (published 2009).

Where a chain is given by its changes, count along the chain named.

For assay [1], the target named is human-mouse chimeric molecule DR-IE (human; mouse). In words: cell-based or functional assay.
Assay [2] has as its target T1, bovine serum albumine (bovine, UniProt P02769 25-607).
T1 construct: negative control protein; also called BSA
In words: ELISA, antigen coated at 10 µg/well. On the procedure: (§1) After washing in PBS the anti-human IgG F(ab)₂-peroxidase-conjugate at a 1:10,000 dilution in TBS (supplemented with 5% w/v non-fat dry-milk/0.05% v/v Tween 20) was added to each well for 1 h. Final washes were carried out in PBS followed the addition the substrate POD (Roche). Color-development was read at 370 nm in an ELISA-Reader.
For orientation: In an ELISA, binding on a coated surface is turned into a signal by an enzyme label.

The target of assay [3] is T2, human apotransferrin (human, UniProt P02787 20-698).
T2 construct: negative control protein
As to the kind of experiment: ELISA, antigen coated at 10 µg/well. On the procedure: as §1

The target in assay [4] is T3, human MHC class II DR protein (DRA*0101/DRB1*0401), purified from PRIESS cells (human, UniProt P01903 26-254; P01911 30-266, limits assumed).
T3 construct: mature; 'mature' is my reading; also called HLA-DR protein; MHCII
T3 MHC II alpha: not shown
T3 MHC II beta: not shown
As to the kind of experiment: SPR (BIAcore), Fab, 3 chips (500, 4000, 3000RU). (SPR reads the build-up and loss of mass on a sensor chip optically.)

Assay [5] addresses T3, human MHC class II DR protein …. In words: BiaCore, IgG4. On the procedure:
The affinities for anti-HLA antibody fragments of the invention were measured as follows. All measurements were conducted in HBS buffer (20 mM HEPES, 150 mM NaCl, pH 7.4) at a flow rate of 20 μl/min at 25° C. on a BIAcore3000 instrument (Biacore AB, Sweden). MHC class II DR protein (prepared as example 1) was diluted in 100 mM sodium acetate pH 4.5 to a concentration of […], and coupled to a CM5 chip (Biacore AB) using standard EDC-NHS coupling chemistry with subsequent ethanolamine treatment as manufacturers directions. The coating density of MHCII was adjusted to between 500 and 4000 RU. Affinities were measured by injection of 5 different concentrations of the different antibodies and using the standard software of the Biacore instrument. Regeneration of the coupled surface was achieved using 10 mM glycine pH 2.3 and 7.5 mM NaOH.

In assay [6] the target is HLA-DR antigen on the surface of HLA-DR positive cells (tumor cell lines other than PRIESS and LG-2, normal B … (human)). As to the kind of experiment: cell-based or functional assay.
In assay [7] the target is human-mouse chimeric molecule DR-IE (human; mouse). In words: cell-based or functional assay. The source holds these as a separate data set.
Assay [8] concerns the target T4, HLA-DR on the human B-lymphoblastoid cell line LG-2 (human). As to the kind of experiment: cell-based or functional assay.
Assay [9] has as its target T4, HLA-DR on the human B-lymphoblastoid …. In words: cell-based or functional assay. The source holds these as a separate data set.
Assay [10] has the same target. As to the kind of experiment: FACS on LG-2 cells, competitor 1-1C4. On the procedure:
Subsequently murine antibodies were added and the murine antibodies were detected.
The whole staining procedure was performed on ice. 1×10⁷ cells of the human B-lymphoblastoid cell line LG-2 was preblocked for 20 min. in PBS containing 2% FCS and 35 μg/ml Guinea Pig IgG (“FACS-Buffer”). […] Subsequently, 4 ml of PBS were added to each vial, the vials were centrifuged at 300×g for 8 min, and the cell pellet resuspended in 50 μl FACS buffer containing a 1 to 25 dilution of a goat-anti-murine Ig-FITC conjugate at 20 μg/ml final concentration (BD Pharmingen, Torrey Pines, Calif., USA). Cells were incubated light-protected for 30 min. Afterwards, cells were washed with 4 ml PBS, centrifuged as above and resuspended in 500 μl PBS for analysis in the flow cytometer (FACS Calibur, BD Immunocytometry Systems, San Jose, Calif., USA).

B1: MS-GPC-8-6 (Fab form) (Fab, V domains shown)
VH: QVQLKESGPALVKPTQTLTLTCTFSGFSLSTSGVGVGWIRQPPGKALEWLALIDWDDDKYYSTSLKTRLTISKDTSKNQVVLTMTNMDPVDTATYYCARSPRYRGAFDYWGQGTLVTVSS
VL: DIVLTQPPSVSGAPGQRVTISCSGSSSNIGSNYVSWYQQLPGTAPKLLIYDNNQRPSGVPDRFSGSKSGTSASLAITGLQSEDEADYYCQSYDYDHYVFGGGTKLTVLG
notes: Fab: VH-CH1-FLAG-STREP tag II
Usually Kd stands for the equilibrium constant for the complex coming apart. What is called kon is the second-order rate constant of association. Higher therefore signals fast association. In the case of B1, in [1], the “IC50, inhibition of IL-2 secretion of T-Hyb 1 cells” value (“IC50, inhibition” below) is 20 nM ((Fab)/2) and the “Maximum inhibition(%) of IL-2 secretion” value was 100%. In assay [2], the binding result is “no binding (tested: 100 ng/well)”. For the same molecule, the binding result in [3] was “no binding (tested: 100 ng/well)”. For the same molecule, in [4], binding was put at a Kd of 8 nM and the kon amounted to 120000 M⁻¹ s⁻¹.

B2: MS-GPC-8-10-57 (IgG4 form) (antibody, V domains shown)
VH: B1 VH
VL: B1 VL with S26E, S31N, S35Q, Y94L, D95I, H96R, Y97H
notes: Human IgG4 (constant region EMBL K01316), lambda constant region (EMBL M18645), from CHO-K1 cells; also called 1C7277
As for B2, the kon in assay [5] was found to be 11000 M⁻¹ s⁻¹. Besides, in [6], the “EC50 of cell killing, IgG form” value turned out to be 1.2 nM. Moreover, the “IC50 for inhibition of T cell proliferation” value in assay [7] came out at 11 nM. In assay [8], the “% killing of LG-2 cells, 50 nM, 4 h” value was found to be 88%. Further, the “EC50 of cell killing, LG2, IgG4” value in assay [9] was 1 nM. Further, in assay [1], the “IC50, inhibition” value is 0.31 nM and the “Maximum inhibition(%) of IL-2 secretion” value was determined as 100%. In addition, the “reduction of mean fluorescence intensity of the murine antibody” value (from here on “reduction”) in assay [10] was > 90%.

B3: MS-GPC-8-6-13 (IgG4 form) (antibody, V domains shown)
VH: B1 VH
VL: B1 VL with S26E, S31A, S35T
notes: Human IgG4 (constant region EMBL K01316), lambda constant region (EMBL M18645), from CHO-K1 cells; also called 305D3
One may read the koff as the rate constant with which the complex falls apart. A higher koff goes with fast dissociation. In the case of B3, the off-rate (koff) in [5] came out at 0.00033 s⁻¹. The “% killing of LG-2 cells, 50 nM, 4 h” value in [8] is 82%. In [1], the “IC50, inhibition” value was determined as 0.42 nM and the “Maximum inhibition(%) of IL-2 secretion” value came out at 100%.

B4: MS-GPC-8-27-41 (IgG4 form) (antibody, V domains shown)
VH: B1 VH
VL: B1 VL with S26E, S31N, S35Q, Y94M, D95N, H96V, Y97H
notes: Human IgG4 (constant region EMBL K01316), lambda constant region (EMBL M18645), from CHO-K1 cells; also called 1D09C3
In the case of B4, the kon in assay [5] came to 71000 M⁻¹ s⁻¹. Further, in assay [6], the “EC50 of cell killing, IgG form” value worked out at 1.2 nM. Further, the “IC50 for inhibition of T cell proliferation” value in assay [7] worked out at 20 nM. Further, the “% killing of LG-2 cells, 50 nM, 4 h” value in assay [8] was 87%. Further, the “EC50 of cell killing, LG2, IgG4” value in [9] came to 1.23 nM. In assay [1], the “IC50, inhibition” value came to 0.28 nM and the “Maximum inhibition(%) of IL-2 secretion” value was 100%. For the same molecule, the “reduction” value in [10] is > 90%.

B5: MS-GPC-8-10-57 (Fab form) (Fab, V domains shown)
VH: B1 VH
VL: B1 VL with S26E, S31N, S35Q, Y94L, D95I, H96R, Y97H
notes: Fab: VH-CH1-FLAG-STREP tag II; also called 1C7277
Regarding B5, the “EC50 of cell killing, LG2, cross-linked Fab as bivalent agent” value in [9] was found to be 7.2 nM. Also, in assay [1], the “IC50, inhibition” value is 2.9 nM ((Fab)/2) and the “Maximum inhibition(%) of IL-2 secretion” value is 100%. Moreover, the binding result in assay [3] is given as “no binding (tested: 100 ng/well)”. Further, the “reduction” value in [10] is > 90%.
